Test in all cases: FCM or ELISA, graded summary
Test [1] addresses T1, human CD3D/E protein (human, UniProt P04234 22-105; P07766 23-126).
T1 construct: also called human CD3 expressing Jurkat cells

The target of test [2] is T2, human CD137 protein (human, UniProt Q07011 24-186).
T2 construct: also called human CD137 expressing CHO cells

In test [3] the target is human PD-L1 protein (human, UniProt Q9NZQ7 19-238).
Test [4] has as its target T3, human BCMA protein (human, UniProt Q02223 1-54).
T3 construct: also called human BCMA expressing NCI-H929 cells; human BCMA overexpressing HEK293 cells
T3 sequence (looked up): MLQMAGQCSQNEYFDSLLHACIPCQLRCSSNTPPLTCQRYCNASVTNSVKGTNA

T1 sequence (P04234 22-105, chain 1 of 2): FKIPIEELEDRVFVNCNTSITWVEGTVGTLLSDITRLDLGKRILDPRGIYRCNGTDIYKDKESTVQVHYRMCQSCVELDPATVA
T1 sequence (P07766 23-126, chain 2 of 2): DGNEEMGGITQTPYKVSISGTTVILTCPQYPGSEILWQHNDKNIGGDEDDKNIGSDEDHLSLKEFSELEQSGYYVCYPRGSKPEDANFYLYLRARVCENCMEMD
T2 sequence (Q07011 24-186 limits assumed): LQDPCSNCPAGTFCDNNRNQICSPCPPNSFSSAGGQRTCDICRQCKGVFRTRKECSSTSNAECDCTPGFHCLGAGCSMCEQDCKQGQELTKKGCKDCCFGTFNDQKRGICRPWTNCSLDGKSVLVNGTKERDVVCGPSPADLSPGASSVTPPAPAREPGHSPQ
Sequence of human PD-L1 protein (Q9NZQ7 19-238 limits assumed): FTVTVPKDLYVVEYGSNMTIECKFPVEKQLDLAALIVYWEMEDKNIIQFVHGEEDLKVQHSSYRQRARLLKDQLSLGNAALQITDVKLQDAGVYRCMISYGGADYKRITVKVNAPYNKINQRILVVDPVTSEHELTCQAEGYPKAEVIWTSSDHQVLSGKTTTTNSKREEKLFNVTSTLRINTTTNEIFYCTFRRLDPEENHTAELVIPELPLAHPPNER

B1: Ly3096 (BCMA/CD3/CD137) (other)
heavy 1: QLQLQESGPGLVKPSETLSLTCTVSGGSISSGSYFWGWIRQPPGKGLEWIGSIYYSGITYYNPSLKSRVTISVDTSKNQFSLKLSSVTAADTAVYYCARHDGAVAGLFDYWGQGTLVTVSSASTKGPSVFPLAPSSKSTSGGTAALGCLVKDYFPEPVTVSWNSGALTSGVHTFPAVLQSSGLYSLSSVVTVPSSSLGTQTYICNVNHKPSNTKVDKKVEPKSCGGGGSGGGGSGGGGSGGGGSEVQLVESGGGLVQPGGSLRLSCAASGFTFSTYAMNWVRQAPGKGLEWVGRIRSKYNNYATYYADSVKGRFTISRDDSKNSLYLQMNSLKTEDTAVYYCVRHGNFGNSYVSWFAYWGQGTLVTVSSGGGGSDKTHTCPPCPAPELLGPSVFLFPPKPKDTLMISRTPEVTCVVVDVSHEDPEVKFNWYVDGVEVHNAKTKPREEQYNSTYRVVSVLTVLHQDWLNGKEYKCKVSNKALGAPIEKTISKAKGQPREPQVYTLPPSREEMTKNQVSLWCLVKGFYPSDIAVEWESNGQPENNYKTTPPVLDSDGSFFLYSKLTVDKSRWQQGNVFSCSVMHEALHNHYTQKSLSLSPGKGGGGSGGGGSGGGGSGGGGSQVQLVQSGAEVKKPGASVKVSCKASGYTFAGFEMHWVRQAPGQGLEWMGAIDPKTGGTDYNQKFKDRVTMTRDTSISTAYMELSRLRSDDTAVYYCARDLGYFDVWGQGTLVTVSS
heavy 2: QLQLQESGPGLVKPSETLSLTCTVSGGSISSGSYFWGWIRQPPGKGLEWIGSIYYSGITYYNPSLKSRVTISVDTSKNQFSLKLSSVTAADTAVYYCARHDGAVAGLFDYWGQGTLVTVSSASTKGPSVFPLAPSSKSTSGGTAALGCLVKDYFPEPVTVSWNSGALTSGVHTFPAVLQSSGLYSLSSVVTVPSSSLGTQTYICNVNHKPSNTKVDKKVEPKSCGGGGSGGGGSGGGGSGGGGSQAVVTQEPSLTVSPGGTVTLTCRSSTGAVTTSNYANWVQQKPGQAPRGLIGGTNKRAPWTPARFSGSLLGGKAALTITGAQAEDEADYYCALWYSNLWVFGGGTKLTVLGGGGSDKTHTCPPCPAPELLGPSVFLFPPKPKDTLMISRTPEVTCVVVDVSHEDPEVKFNWYVDGVEVHNAKTKPREEQYNSTYRVVSVLTVLHQDWLNGKEYKCKVSNKALGAPIEKTISKAKGQPREPQVYTLPPSREEMTKNQVSLSCAVKGFYPSDIAVEWESNGQPENNYKTTPPVLDSDGSFFLVSKLTVDKSRWQQGNVFSCSVMHEALHNRFTQKSLSLSPGKGGGGSGGGGSGGGGSGGGGSDIQMTQSPSSLSASVGDRVTITCRASQDIRSNLNWYQQKPGGAVKLLIYYTSRLHSGVPSRFSGSGSGTDYTLTISSLQPEDFATYFCQQSEKLPRTFGGGTKVEIR
light: SYVLTQPPSVSVAPGQTARITCGGNNIGSKSVHWYQQPPGQAPVVVVYDDSDRPSGIPERFSGSNSGNTATLTISRVEAGDEAVYYCQVWDSSSDHVVFGGGTKLTVLGQPKAAPSVTLFPPSSEELQANKATLVCLISDFYPGAVTVAWKGDSSPVKAGVETTTPSKQSNNKYAASSYLSLTPEQWKSHRSYSCQVTHEGSTVEKTVAPTECS
notes: Multi-specific (tri-specific) antibody with three different chains HC1, HC2, LC1; also called BCMA(b) /CD3 /CD137
As to B1, the binding result in test [1] and in test [2] was “binds” throughout.

B2: Ly3106 (BCMA/CD3/PD-L1) (other)
heavy 1: QLQLQESGPGLVKPSETLSLTCTVSGGSISSGSYFWGWIRQPPGKGLEWIGSIYYSGITYYNPSLKSRVTISVDTSKNQFSLKLSSVTAADTAVYYCARHDGAVAGLFDYWGQGTLVTVSSASTKGPSVFPLAPSSKSTSGGTAALGCLVKDYFPEPVTVSWNSGALTSGVHTFPAVLQSSGLYSLSSVVTVPSSSLGTQTYICNVNHKPSNTKVDKKVEPKSCGGGGSGGGGSGGGGSGGGGSEVQLVESGGGLVQPGGSLRLSCAASGFTFSTYAMNWVRQAPGKGLEWVGRIRSKYNNYATYYADSVKGRFTISRDDSKNSLYLQMNSLKTEDTAVYYCVRHGNFGNSYVSWFAYWGQGTLVTVSSGGGGSDKTHTCPPCPAPELLGPSVFLFPPKPKDTLMISRTPEVTCVVVDVSHEDPEVKFNWYVDGVEVHNAKTKPREEQYNSTYRVVSVLTVLHQDWLNGKEYKCKVSNKALGAPIEKTISKAKGQPREPQVYTLPPSREEMTKNQVSLWCLVKGFYPSDIAVEWESNGQPENNYKTTPPVLDSDGSFFLYSKLTVDKSRWQQGNVFSCSVMHEALHNHYTQKSLSLSPGKGGGGSGGGGSGGGGSGGGGSQVQLVQSGAEVKKPGASVKVSCKASGYTFTDFWMSWVRQAPGQGLEWMGQIYPNTGTTHSNEKFKGRVTMTRDTSTSTVYMELSSLRSEDTAVYYCARSYHISTTPNWFAYWGQGTLVTVSS
heavy 2: QLQLQESGPGLVKPSETLSLTCTVSGGSISSGSYFWGWIRQPPGKGLEWIGSIYYSGITYYNPSLKSRVTISVDTSKNQFSLKLSSVTAADTAVYYCARHDGAVAGLFDYWGQGTLVTVSSASTKGPSVFPLAPSSKSTSGGTAALGCLVKDYFPEPVTVSWNSGALTSGVHTFPAVLQSSGLYSLSSVVTVPSSSLGTQTYICNVNHKPSNTKVDKKVEPKSCGGGGSGGGGSGGGGSGGGGSQAVVTQEPSLTVSPGGTVTLTCRSSTGAVTTSNYANWVQQKPGQAPRGLIGGTNKRAPWTPARFSGSLLGGKAALTITGAQAEDEADYYCALWYSNLWVFGGGTKLTVLGGGGSDKTHTCPPCPAPELLGPSVFLFPPKPKDTLMISRTPEVTCVVVDVSHEDPEVKFNWYVDGVEVHNAKTKPREEQYNSTYRVVSVLTVLHQDWLNGKEYKCKVSNKALGAPIEKTISKAKGQPREPQVYTLPPSREEMTKNQVSLSCAVKGFYPSDIAVEWESNGQPENNYKTTPPVLDSDGSFFLVSKLTVDKSRWQQGNVFSCSVMHEALHNRFTQKSLSLSPGKGGGGSGGGGSGGGGSGGGGSDIQMTQSPSSLSASVGDRVTITCKASQNVYKKLEWYQQKPGKVPKVLIYHTNILQTGVPSRFSGSGSGTDYTLTISSLQPEDVATYYCYQWNSGPTFGGGTKVEIK
light: SYVLTQPPSVSVAPGQTARITCGGNNIGSKSVHWYQQPPGQAPVVVVYDDSDRPSGIPERFSGSNSGNTATLTISRVEAGDEAVYYCQVWDSSSDHVVFGGGTKLTVLGQPKAAPSVTLFPPSSEELQANKATLVCLISDFYPGAVTVAWKGDSSPVKAGVETTTPSKQSNNKYAASSYLSLTPEQWKSHRSYSCQVTHEGSTVEKTVAPTECS
notes: Multi-specific (tri-specific) antibody with three different chains HC1, HC2, LC1; also called BCMA(b) /CD3 /PD-L1
On to B2, for which the binding result in test [1] and in test [3] was “binds” each time.

B3: Ly2949 (BCMA/CD3/CD137) (other)
heavy 1: QVQLVQSGAEVKKPGASVKVSCKASGYTFTNHIIHWVRQAPGQGLEWMGYINPYPGYHAYNEKFQGRATMTSDTSTSTVYMELSSLRSEDTAVYYCARDGYYRDTDVLDYWGQGTLVTVSSASTKGPSVFPLAPSSKSTSGGTAALGCLVKDYFPEPVTVSWNSGALTSGVHTFPAVLQSSGLYSLSSVVTVPSSSLGTQTYICNVNHKPSNTKVDKKVEPKSCGGGGSGGGGSGGGGSGGGGSEVQLVESGGGLVQPGGSLRLSCAASGFTFSTYAMNWVRQAPGKGLEWVGRIRSKYNNYATYYADSVKGRFTISRDDSKNSLYLQMNSLKTEDTAVYYCVRHGNFGNSYVSWFAYWGQGTLVTVSSGGGGSDKTHTCPPCPAPELLGPSVFLFPPKPKDTLMISRTPEVTCVVVDVSHEDPEVKFNWYVDGVEVHNAKTKPREEQYNSTYRVVSVLTVLHQDWLNGKEYKCKVSNKALGAPIEKTISKAKGQPREPQVYTLPPSREEMTKNQVSLWCLVKGFYPSDIAVEWESNGQPENNYKTTPPVLDSDGSFFLYSKLTVDKSRWQQGNVFSCSVMHEALHNHYTQKSLSLSPGKGGGGSGGGGSGGGGSGGGGSQVQLVQSGAEVKKPGASVKVSCKASGYTFAGFEMHWVRQAPGQGLEWMGAIDPKTGGTDYNQKFKDRVTMTRDTSISTAYMELSRLRSDDTAVYYCARDLGYFDVWGQGTLVTVSS
heavy 2: QVQLVQSGAEVKKPGASVKVSCKASGYTFTNHIIHWVRQAPGQGLEWMGYINPYPGYHAYNEKFQGRATMTSDTSTSTVYMELSSLRSEDTAVYYCARDGYYRDTDVLDYWGQGTLVTVSSASTKGPSVFPLAPSSKSTSGGTAALGCLVKDYFPEPVTVSWNSGALTSGVHTFPAVLQSSGLYSLSSVVTVPSSSLGTQTYICNVNHKPSNTKVDKKVEPKSCGGGGSGGGGSGGGGSGGGGSQAVVTQEPSLTVSPGGTVTLTCRSSTGAVTTSNYANWVQQKPGQAPRGLIGGTNKRAPWTPARFSGSLLGGKAALTITGAQAEDEADYYCALWYSNLWVFGGGTKLTVLGGGGSDKTHTCPPCPAPELLGPSVFLFPPKPKDTLMISRTPEVTCVVVDVSHEDPEVKFNWYVDGVEVHNAKTKPREEQYNSTYRVVSVLTVLHQDWLNGKEYKCKVSNKALGAPIEKTISKAKGQPREPQVYTLPPSREEMTKNQVSLSCAVKGFYPSDIAVEWESNGQPENNYKTTPPVLDSDGSFFLVSKLTVDKSRWQQGNVFSCSVMHEALHNRFTQKSLSLSPGKGGGGSGGGGSGGGGSGGGGSDIQMTQSPSSLSASVGDRVTITCRASQDIRSNLNWYQQKPGGAVKLLIYYTSRLHSGVPSRFSGSGSGTDYTLTISSLQPEDFATYFCQQSEKLPRTFGGGTKVEIR
light: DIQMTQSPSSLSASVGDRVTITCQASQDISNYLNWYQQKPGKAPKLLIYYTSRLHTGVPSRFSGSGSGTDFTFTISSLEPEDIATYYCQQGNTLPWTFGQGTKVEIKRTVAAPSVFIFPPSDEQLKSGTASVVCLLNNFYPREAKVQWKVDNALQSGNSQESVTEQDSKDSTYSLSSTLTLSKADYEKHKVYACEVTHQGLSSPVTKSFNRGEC
notes: Multi-specific (tri-specific) antibody with three different chains HC1, HC2, LC1; also called BCMA(a) /CD3 /CD137; anti-BCMA/CD3/CD137 multi-specific antibody
Consider B3, for which the binding result in test [1], in test [2] and in test [4] was “binds” in each case.

For the origin of these results see EP4806922A2 (Lyvgen Biopharma Holdings Limited, dated 2026).
